This is an account of results in the DeepSol protein solubility set.

The data set in a line: soluble on expression in E. coli; label from the status in PepcDB or PDB records.
“MEKPHVVSLIGGFGYREPIFRKVLTTAMLDPGINYTLISGPSLDPSKLGGVPKNVRILNFVEDTYPYIKSSDAVIAPGGHSTIMEALSFGVPILSFPDEGHSEQESNAAVVEEEGYGRMLSYSTPPEVILECIREVIEDEAYRNKVERLQRLSGELEHHHHHH”: the “soluble on expression in E. coli” value is “not soluble”.

Regarding “MELVATQDGFVGEMARGFTFQALGEVAAGFGKRLQAEGIPRVVVGHDARFLAREMAEHAAGVLGGLGLEVHLLQGPAPLPLFGFALRAKEAAGLYLTGSRRPFAFQGVKLRLGPGRPLPREGGGPRTPPSPGPFAPLEARRDYLDHLRKSAQGLALKRGVVYLDAMGGAGGGILGQVLKRLEAPVELRELHPLPHPLFYGVAPDPRPEHLRTLRLLLREAKPPALGLALDGDADRLGVYLPGGEALPGDQALARLREAAQGREVEALGEGAYRFPWHLEEPDPFLAALLLMGVLL”, the “soluble on expression in E. coli” value is given as “soluble”.

For the sequence “MADPSFASGRLGSRLQGSIAMIAEELLRAGRLDDALKALQEQVRSQPSNATLRIFLFQLLAVMGQWARAQNQLKVVGELDASALPMVQTYSTAIDCEALRREVFAGRLTPVILGQPAEWIAPLLQALSLDAEGHGEAAQALREQAFDAAPAVPGRIGEAPFAWLADADTRLGPVLEVIVNGRYAWLPMSNLRSLKVEAPSDLRDLVWLPAELTLANGGATVALLPARYAETVEHGDDAARLGRKTEWLDSGLPVGQRLFVTDAGETALFDLRELDFEPTDA”, the “soluble on expression in E. coli” value is “not soluble”.

As to “IGDFEYYIDGMLTFNTNKITEMDELTPDYAYQARTGNRIDQSQLLIWKQWASNPDLIPESYEDAVANPQKYPWNAAGKYKLGNAVFQDTNGDRKIDSYDKVPTGYTNIPELIPTIRLGFSWKGFDARAVLTAYLNRTVPCRENMDYGFGWGGTSTHEITNTWGYYTDDPTDPRNINAKYPRLSTSFSDLDRNYPYNESTIWVVNGDFLSLRNVEVGYSLPARLISKVNMTKCRLYFSGYNLCNWSHLPKGFDPENPTNYIWAYPKTRSFTFGVNIGF”, the “soluble on expression in E. coli” value is listed as “not soluble”.

Regarding “MPKETFYNLSEEKRQRIINSAEKEFFRVPLSKASIANIVTGAQIPRGSFYQYFDDLNDLYHYFFEKKFQGFHENFKKELENHQGDLIEAWRQVAKKVLRRIVNSENSIFFENAIFGLNIQRDQNIIDSFANFHHPENKAPEYFDEIDFSFLKIKSKKDLITLRHIMSGIIIQAATAYFSKCDSGQKVDLEEILEGIDKQIDWLKYGVYKEKEHD”, the “soluble on expression in E. coli” value is recorded as “not soluble”.

For “MGKILVLSDIHYPYCDIDEINKIMLSERPSLTVLLGDIIVSKSEDYRNFIDKLKIRKNIIYVKGDEDKFRGDFDLIKIKNNGKRFILLHGHQYFNENNEYSLAKVLKKMNDNIPPLLFCIFFRIMLRNFKDTIILGHSHAL”, the “soluble on expression in E. coli” value was “soluble”.

With “MRRGNRRTPGPVCRQAFRAEFTAIHAPVVFFMSCNRQIVRSLRQQIPSFECVPGCHDCCGPVTTSPEEMSRLPRKTAAEQEAAMDELNCVHLGPNGCTVYDERPLICRLFGTTPSLPCPNGRRPVEMIHPRVEKQIHDYMASTRQVLVLEHHHHHH”, the “soluble on expression in E. coli” value is “not soluble”.

“MGVERIKAAFENGKKAFIPYVMGGDGGLEILKERIRFLDEAGASIVEIGIPFSDPVADGPTIQRAGKRALDSGVTVKGIFQALIEVRKEVQIPFVLMTYLNPVLAFGKERFIENCMEAGVDGIIVPDLPYEEQDIIAPLLREANIALIPLVTVTSPIERIKKITSESEGFVYAVTVAGVTGVRQNFKDEIHSYLEKVKSHTHLPVVAGFGISTKEHVEEMVTICDGVVVGSKVIELLENEKREEICEFIQATKQKEEA”: the “soluble on expression in E. coli” value is listed as “not soluble”.

In the case of “MGSDKIHHHHHHMKFSEPLVEGRLIRRYKRFLADVQLPDGTEVTAHCPNTGSMLGCQPENARVWLSRSDNPKRKLQYTWELVETEPGVLACVNTVRPNAQARAAIEAGVVQSLAGYAQCRAEVRYGSEKSRIDLLLSGHDHDPDAWVEVKNVTLAEGGEGYFPDAVTERGQKHLRELMAQVQNGDRAVLFFVVNHTGIEQVRPADHIDARYGQLLREACEAGVEVIAYRAALAGEDGDPSGRLELVEEVPVSLEP”, the “soluble on expression in E. coli” value is on record as “not soluble”.

For “MNLASQISQAKTGNATMEWAKNYVSKLNDGQLALLQKMYADHQAKLKASEDEKKKKEMEELKMKAQQQAILDSLTQQIPIMVDVLRSSTSPDSQPSSSSSVMSSTDEDQITVKDVLIGKINKAQRQSSPNSSKPYTPRGIRERVLFDEHLYVFDKCSYDSKKRFFRCERKNTCPARIHTPFDAERVIHKVQVHNHPPPTTFDLAHYNIDYGKVKSGHILSLNGPQQTKNLLPPSLLTPKSDLEDETLSTKTEQKNASTMNILLSMTNNCDGRKPITLRLPDLFNKISEMEIHDMEMTLTKFLLENRELRTDLISRNGDLPVFFPNAHNDELVLFVADQHENDSVFQMIRVSERNEKSIRQAIQEHLQKVSNRSLMMNISSKINVPLSQQMIDQWRTEEFIRLDSSKPNFWKIHHVSKLQD”, the “soluble on expression in E. coli” value is reported as “not soluble”.

Consider “MDALEGESFALSFSSASDAEFDAVVGYLEDIIMDDEFQLLQRNFMDKYYLEFEDTEENKLIYTPIFNEYISLVEKYIEEQLLQRIPEFNMAAFTTTLQHHKDEVAGDIFDMLLTFTDFLAFKEMFLDYRAEKEGRGLDLSSGLVVTSLCKSSSLPASQNNLRHGHHHHHH”, for which the “soluble on expression in E. coli” value is listed as “not soluble”.

On to “MKMFLAQKGVPFEFVNAREDEEARKKVTALAGSPTAGVVLEWEGGTEVIRGVSPASLHAWLARYRGKEA”, for which the “soluble on expression in E. coli” value is “soluble”.

For the sequence “IEKSTQYMAKRRIGALISVARDTGMDDYIETGIPLNAKISSQLLINIFIPNTPLHDGAVIIKGNEIASAASYLPLSDSPFLSKELGTRHRAALGISEVTDSITIVVSEETGGISLTKGGELF”, the “soluble on expression in E. coli” value is on record as “not soluble”.

Regarding “KGGWFGKHRGQGGSNPKFENIAEGLRALLARSHVERTTDEGTWVAGVFVYGGSKTSLYNLRRGTALAIPQCRLTPLSRLPFGMAPGPGPQPGPLRESIVCYFMVFLQTHIFAEVLKDAIKDLVMTKPAPTCNIRVTVCSFDDGVDLP”, the “soluble on expression in E. coli” value is on record as “soluble”.

In the case of “MPIMLEDYQKNFLELAIECQALRFGSFKLKSGRESPYFFNLGLFNTGKLLSNLATAYAIAIIQSDLKFDVIFGPAYKGIPLAAIVCVKLAEIGGSKFQNIQYAFNRKEAKDHGEGGIIVGSALENKRILIIDDVMTAGTAINEAFEIISNAKGQVVGSIIALDRQEVVSTDDKEGLSATQTVSKKYGIPVLSIVSLIHIITYLEGRITAEEKSKIEQYLQTYGASA”, the “soluble on expression in E. coli” value is given as “soluble”.

As for “MTAVPLPILHLPHNALQMSLKQMSTVEHLALSFVSNKTRRLIKMLKEKNHITCISMGSPISIDFLSLTFDYKSNQKIVKIDNPEQNGSLSRLNLPGFTEKQWIEHFANVFIQNKKVMLISDLGERKIEDIYESIKDLNIVTLDIMTSEFQDCKLFKLFPTLEELGVSETPLSAPIFVQNFQSLTAIDVTLDDILSSNCTNLCLDDQLISDKDLNIFMRNWIKGSNPRLRKLTNTSVRHERDISDSVFFRGISQIKTRDWCDEDTFDKEFEIKNEDGVRAKVTLSTFSFIFCIEDF”, the “soluble on expression in E. coli” value is recorded as “not soluble”.

Regarding “MGSDKIHHHHHHMRDLLNDLSEGLSHPDPILRAQIQMQKPLPKRFYKDVTVADVEEGGFTILLDGKPLRTPAKKPLVAPSRALADLLRDEWDAQKEVVNPVVMPVSRHVNTAIDGIASDTQAVFEDILRFSSSDLLCYRAGDPEALVARQTDYWDPVLDWATNVLGARFILVEGVMHRDQPREAIAAFAVTLKKYDTPIALAALHTMTSLTGSAILALALAEGELTLEEAWALAHLDEDWTAEQWGEDEEALERRAVRLIDMRAALNVLESLKSAS”, the “soluble on expression in E. coli” value is “not soluble”.

On to “MSLKILVIGGTGNIGLPLIQYLDQQVGVQVVAGAHNLHKDEQLLATYPDVEIRRFDFLDETTFDAALRGIQKVFFVRPPQLAKPKQDMWPFLKCLQAHHIEQVVFVSLMGVEHNPMTPHHQIEQMIEQLQLPYTFIRPSFFMQNLNTTHRVDIQQNHDLFIPAGRSKTSFIDTRDIGEIAGVALLDTQYLQQKLTVTGPEALTYQQIAALMTESFGHPVTYHRPSLWRFRRVMLKRGIKKDYVNVMVMLYLITQLGNAKRVTDTAEKVLGHAPHTMTTYLRDYADQLQEGHHHHHH”, for which the “soluble on expression in E. coli” value was “not soluble”.

Turning to “RQGELSIACLPVFSQSFLPLLLPPFLSRYPEVSLQIVPQESPLLEEWLSAQRHDLGLTETLHTPAGTERTPLLTLNEVCVLPAGHPLAAQATLTPADFQGENYISLSRTDSYRQLLDALFLEHQVKRRMVVETHSAASICAMVRAGA”, the “soluble on expression in E. coli” value was “not soluble”.

In the case of “MAHHHHHHMSAKLTVAVPRLASTVLLLARNPKHAISEQRPATGDNAARENDIHVLIMKRHGKARFMPGVYVFPGGGIEGSDYAAATHYLAEHYNLHLQDAADKKVTTQDFIESCGQPSAEEAELEAWACRVGALRELAEEAACVLRRDGCIFSEAEWIKWQKSRSDAGATGGASTDPVSSRPATLLPIYDLPAVSSLRPVARWVSPRQSRYRYDTYFYAALVNSALVSAEAHKAAHAPCSTQASSCDEANAGMGVRCIPPQELPLLEQASEVSELLWISPLEALRRHEDPSDVFSLAPPTYLLLHALSLQPSFASLAAAWAAAPASPEDPAAKPLGDLPHSSVLPCVEPLSTMTEDGRRIMKFVLPARYFHETGWSVAEGEYLFPGECCAGHRHFIHVFVGRAGATTGDGATADKPCTILH”, the “soluble on expression in E. coli” value is “not soluble”.

Take “MIPPSSPREDGVDGLPKEAVGAEQPPSPASTSSQESKLQKLKRSLSFKTKSLRSKSADNFFQRTNSEDMKLQAHMVAEISPSSSPLPAPGSLTSTPARAGLHPGGKAHAFHEYIFKKPTFCDVCNHMIVGTNAKHGLRCKACKMSIHHKCTDGLAPQRCMGKLPKGFRRYYSSPLLIHEQFGCIKEVMPIACGNKVDPVYETLRFGTSLAQRTKKGSSGSGSDSPHRTSTSDLVEVPEEANGPGGGYDLRKRSNSVFTYPENGTDDFRDPAKNINHQGSLSKDPLQMNTYVALYKFVPQENEDLEMRPGDIITLLEDSNEDWWKGKIQDRIGFFPANFVQRLQQNEKIFRCVRTFIGCKEQGQITLKENQICVSSEEEQDGFIRVLSGKKKGLIPLDVLENI”: the “soluble on expression in E. coli” value is listed as “soluble”.

Turning to “MLTYETWEENETKGALSVLSWAYKEYKSEIVYACSFGVEGMVLLDLINQVNPSAKVVFLDTNVHFQETYELIQKVRERFPSLNIIEKQPKLTLDEQDKLHGDKLWESNPNLCCKIRKILPLEESLANEKAWISGLRREQSETRKHTKFINQDHRFQSIKVCPLIHWTWKEVWRYVYKHSLPYNSLHDIGYPSIGCEKCTLPVGEGGDSRDGRWAGKVKTECGLHYQ”, the “soluble on expression in E. coli” value was “not soluble”.

Regarding “MRILFSLFFFISLSLLAQPLSLSLKNAPTAEILSYLAEENMKNIVLSDQIDKNTTLRIENSHFDEIVESIVRANQLSKRKEKQIYFIGHLKEDKAIEKIDNGDKPKLITQTIKLDYAKASEVIESLTKGKGNGNVLSEQGYLYFDERSNSLIIKDSPDSMKHILALIKNLDKPTEQIAIEARIVTISSQDLQELGVRWGMFSPSDDYHKVASSLETKGLTTANHLNVNFPVNNATSLALQVARINSRVLDLELTALEQENNVEIIASPRLLTTNKKPASIKQGAEIPYVLYNRKDEVKNIEFKEAVLGLQVTPHISADNQILLDLVVTQNSPNLNNTAVNGLITIDKQELNTQVFAKHGETIVLGGIFQHLTAKGEDRVPLLGSIPVLKKLFSHSTDKITKRELVIFVTPYLVQDKYKKLEHHHHHH”, the “soluble on expression in E. coli” value was “not soluble”.

For the sequence “MWLRDPFPRLYPDGDFQMACDRFFGNPYDSDNWVNGGFTYVRSNNRSIEFYKFWHKSRLDYPDLHDQDVFNRIKHEPFISEIGIQMRFFDTVYFGGFCQTSRDINLVCTMHANCCIGLDKKLHDLNLVLDDWRKYLSLSEPVQNTTWSVPMKCLED”, the “soluble on expression in E. coli” value was “not soluble”.
